“Also recorded” adds a separate entry of the source.
How the values were obtained:
Format in all cases: in vivo
Arabidopsis = assay: Growth phenotypes of transgenic Arabidopsis
From the text: (§1) Previously, reconstitution of a functional inorganic CCM in C3 plants to suppress photorespiration and enhance photosynthesis was proposed. In WO 2012/125737, it was hypothesized that expression of a minimum of three algal CCM proteins would be sufficient to elevate internal plastid CO2 concentrations high enough to suppress photorespiration. These three algal CCM genes included the Chlamydomonas plasma membrane-localized and ATP-dependent bicarbonate transporter, HLA3; the chloroplast envelope localized bicarbonate anion transporter, LCIA; and a chloroplast stromal-localized carbonic anhydrase (HCA-II) to accelerate conversion of bicarbonate into CO2. […] To test this hypothesis, we generated multiple independent transgenic Arabidopsis and Camelina plants expressing each CCM gene as a single gene construct, as well as a stacked 3-gene construct. The expression of each gene was controlled by the light-regulated Cab1 gene promoter.
Finally, we also grew transgenics on ammonium with sucrose which would presumably provide additional ATP via respiration. We hypothesized that growth on nitrate or ammonium with sucrose would provide additional ATP that could potentially drive HLA3 activity.

Camelina [1] = assay: Growth phenotypes and seed recovery of transgenic Camelina
From the text: as §1

Camelina [2] = assay: CO2-dependent photosynthetic rates of transgenic Camelina
From the text: FIGS. 5A-5C. Growth phenotypes of WT and LCIA transgenic (T1) Arabidopsis plants four weeks after germination. (B) Four-week-old WT (left 4 plants) and independent transgenic Camelina (right 4 plants) expressing LCIA. (C) CO2-dependent photosynthetic rates of WT and LCIA transgenic Camelina.
We propose that the substantially greater carbon sink-strength of Camelina relative to Arabidopsis accounts for the enhanced growth phenotype observed in Camelina LCIA plants. In support of this hypothesis, we observed that Camelina LCIA transgenics had higher CO2-dependent rates of photosynthesis and lower CO2 compensation points (40 vs. 53 ppm CO2) than WT plants indicative of facilitated inorganic carbon uptake by LCIA (FIG. 5C).

B1: LCIA: chloroplast envelope localized bicarbonate anion transporter, expressed in transgenic plants (protein, listed as Chlamydomonas reinhardtii)
chain: MQTTMTRPCLAQPVLRSRVLRSPMRVVAASAPTAVTTVVTSNGNGNGHFQAATTPVPPTPAPVAVSAPVRAVSVLTPPQVYENAINVGAYKAGLTPLATFVQGIQAGAYIAFGAFLAISVGGNIPGVAAANPGLAKLLFALVFPVGLSMVTNCGAELFTGNTMMLTCALIEKKATWGQLLKNWSVSYFGNFVGSIAMVAAVVATGCLTTNTLPVQMATLKANLGFTEVLSRSILCNWLVCCAVWSASAATSLPGRILALWPCITAFVAIGLEHSVANMFVIPLGMMLGAEVTWSQFFFNNLIPVTLGNTIAGVLMMAIAYSISFGSLGKSAKPATA
Arabidopsis
  growth phenotype relative to WT: substantially impaired in growth; also recorded: severely depressed growth phenotypes
Camelina [1]
  growth phenotype / viability relative to WT: grew better than WT; also recorded: increased growth rates
Camelina [2]
  CO2-dependent photosynthetic rates relative to WT: higher CO2-dependent photosynthetic rates
  CO2 compensation point: 40 ppm CO2
  CO2 compensation points relative to WT: reduced CO2 compensation points
Camelina [2]; ambient CO2 concentrations
  higher photosynthetic rates than WT: up to 25%
